The values that follow come from patent US20120322150A1, “Mechanism and Method for Regulating Glycogen Synthase Kinase 3 (GSK3)-Related Kinases” (CARNEGIE INSTITUTION OF WASHINGTON, priority 2009, published 2012).

Data set [1] deals with phospho-myelin basic protein. Put plainly: In vitro phosphatase assay using phospho-myelin basic protein. The class given is biochemical. The procedure: In vitro phosphatase assay using phospho-myelin basic protein was performed according to manufacturer's protocol (New England Biolab. Beverly, Mass.). To examine tyrosine phosphatase activity of BSU 1, 20 mM p-nitrophenyl phosphate was incubated with MBP-BSD) in 50 uL of reaction buffer (50 mM Tris. pH 7.2, 20 mM NaCl, 5 mM DTT, 10 RIM MgCl2). The reaction was quenched by the addition of 100 uL of 0.5 M NaOH after incubation at 30° C. for 1 hr. p-Nitrophenol production was determined by measuring A405 (extinction coefficient, e=1.78×104 M-tCm J).

For data set [2], the system named is phosphorylated BZR1 and BZR2. Put plainly: In vitro dephosphorylation of pre-phosphorylated BZR1 and BZR2. The format is biochemical, Arabidopsis. The note with it: added after BIN2 and ATP were removed. The procedure: MBP-BZR1 and GST-BIN2 proteins were expressed and purified from E. coli and maltose or glutathione was removed from the proteins by ultrafiltration using Centricon 30 (Amicon Ultra, Millipore, Billerica, Mass.). To prepare fully phosphorylated BZR1 proteins, MBP-BZR1 protein was incubated with GST BIN2 as 1 to 1 ratio in the kinase buffer containing 100 μM ATP at 30° C. overnight. The protein mixture was incubated with glutathione Sepharose beads to remove GSTBIN2, then with amylose beads to purify MBP-pBZR1. Partially phosphorylated 32Plabeled pBZR1 and pBZR2 were prepared by the same method but MBP-BZR1 or MBP-BZR2 was incubated with GST BIN2 at a 15 to 1 ratio for 3 hrs in the presence of […] 32P-γATP. For dephosphorylation, GST-BSU1 was incubated with fully phosphorylated MBP-pBZR1 and 32P-MBP-pBZR1 or 32 P-MBP-pBZR2 for 12 or 16 Ins, […]

In data set [3] the target is T1, BIN2 (Arabidopsis thaliana, UniProt Q39011).
T1 construct: made in house; host or cells: E. coli
T1 sequence (Q39011 1-380): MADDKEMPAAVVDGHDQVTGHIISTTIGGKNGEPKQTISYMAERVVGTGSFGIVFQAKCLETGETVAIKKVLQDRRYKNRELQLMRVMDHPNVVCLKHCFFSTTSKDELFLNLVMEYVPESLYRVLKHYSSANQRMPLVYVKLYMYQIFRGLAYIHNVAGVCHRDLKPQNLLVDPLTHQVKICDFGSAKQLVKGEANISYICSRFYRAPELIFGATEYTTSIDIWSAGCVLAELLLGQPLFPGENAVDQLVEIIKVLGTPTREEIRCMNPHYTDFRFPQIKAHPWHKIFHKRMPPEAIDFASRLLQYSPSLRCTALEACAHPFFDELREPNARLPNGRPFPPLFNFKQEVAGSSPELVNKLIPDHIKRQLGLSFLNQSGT
The data set can be described thus: In vitro BIN2 inhibition assay (BIN2 phosphorylation of BZR1). The class given is biochemical. As for the experimental part: In vitro BIN2 inhibition assays were performed by 3 hrs co-incubation of MBP-BZR1, GST BIN2, GST BSU1 and ^32P-γATP or pre-incubation of GST-BIN2 with GST-BSU1 for various time followed by adding MBP-BZR1 and 32P-γATP. The examine activities of partial BSU1, N-terminal Kelch (1-363th amino acid) and C-terminal phosphatase (364-793th amino acid) region were used. GST, GST-BSU1, GSTBSU1-Ketch and GST-BSU1-phosphatase were pre-incubated with GST-BIN2 for 1 hr, and further incubated with MBP-BZR1 and ^32P-γATP for 3 hrs.
To test activities of BSU1-YFP, anti-GFP antibody-Protein A beads were used to immunoprecipitate BSU1-YFP from extracts of BSU1-YFP transgenic plants, and non-transgenic wild type plants were used as control. The beads were incubated with GST-BIN2 or GST bin2-1 for 1 hr, and then the beads were removed. The BSU1-treated GST-BIN2 or GST-bin2-1 was further incubated with MBP-BZR1 and ^32P-γATP for 3 hrs.

Data set [4] deals with T2, PP1 (Homo sapiens, UniProt P36873).
T2 construct: made in house; host or cells: E. coli
Put plainly: Inhibition of PP1 activity on BIN2. The class given is biochemical, mammalian. As for the experimental part: It was next examined whether the mammalian homolog to BSU1, PP1, would dephosphorylate BIN2. A GST-tagged BIN2 was isolated from cells and incubated with PP1 purified from E. coli cells expressing the phosphatase.

T2 sequence (P36873 whole entry): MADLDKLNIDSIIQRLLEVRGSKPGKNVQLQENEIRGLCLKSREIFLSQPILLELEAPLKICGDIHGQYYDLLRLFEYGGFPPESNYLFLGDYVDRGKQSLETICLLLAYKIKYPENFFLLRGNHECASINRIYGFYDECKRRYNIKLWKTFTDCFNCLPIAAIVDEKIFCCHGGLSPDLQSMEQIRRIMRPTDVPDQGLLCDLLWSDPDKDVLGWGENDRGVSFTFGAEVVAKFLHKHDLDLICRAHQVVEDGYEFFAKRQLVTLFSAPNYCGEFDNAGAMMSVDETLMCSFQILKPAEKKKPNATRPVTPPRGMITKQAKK

B1: BSL1: closest homolog of BSU1 (SEQ ID NO: 28) (protein, listed as Arabidopsis thaliana)
chain: MGSKPWLHPAPQYKTLETFWDDEDDAPGPRCAHTLTAVAATKTHGPRLILFGGATAIEGGSSSVPGIRLAGVTNTVHSYDILTRKWTRLKPAGEPPSPRAAHAAAAVGTMVVFQGGIGPAGHSTDDLYVLDMTNDKFKWHRVVVQGDGPGPRYGHVMDLVSQRYLVTVTGNDGKRALSDAWALDTAQKPYVWQRLNPDGDRPSARMYASGSARSDGMFLLCGGRDTLGAPLGDAYGLLMHRNGQWEWTLAPGVAPSPRYQHAAVFVGARLHVSGGVLRGGRVIDAEASVAVLDTAAGVWLDRNGQVTSARGSKGQIDQDPSFELMRRCRHGAASVGIRIYVHGGLRGDVLLDDFLVAENSTFQSDISSPLLASDRTQQSSTPRFSYAARPPSGSEPSFSMSEGLSLDENSLEKLTEASAAEAEVASSVWRAAQLGAGTLDEEPSTSDASSPIVESTTDGTANEGDVRLHPRAVVVAKETVGSLGGMVRQLSLDQFQNESRRMVPMNNSDVPQPTKKFTRQKSPQGLHKKVIAALLRPRNWKPPGNRKFFLDSYEVGELCYAAEQIFMHEQTVLQLKAPIKVFGDLHGQFGDLMRLFDEYGFPSTAGDITYIDYLFLGDYVDRGQHSLETITLLLALKIEYPENVHLIRGNHEAADINALFGFRLECIERMGENDGIWAWTRFNQLFNYLPLAALIENKIICMHGGIGRSISTVEQIEKIERPITMDAGSLVLMDLLWSDPTENDSIEGLRPNARGPGLVTFGPDRVTEFCKRNKLQLIIRAHECVMDGFERFAQGQLITLFSATNYCGTANNAGAILVVGRGLVIVPKLIHPLPPPILSPENSPEHSGDDAWMQELNIQRPPTPTRGRPQPDFDRSSLAYI
For B1, the “phosphatase activity on phosphorylated myelin basic protein” value in data set [1] (protein purified from E.coli, metal ions 1 mM) was “showed manganese-dependent phosphatase activities”. The “dephosphorylation of pre-phosphorylated BZR1 / BZR2” value in data set [2] was “do not dephosphorylate phosphorylated BZR1 and BZR2”. The “BIN2 phosphorylation of BZR1, co-incubation” value in data set [3] (co-incubated with BIN2 and BZR1, 32P-γATP, 3 hrs) was “inhibit B1N2 phosphorylation of BZR1 and BZR2”.

B2: BSU1-D5ION: mutant BSU1, Asp510 to Asn, with reduced phosphatase activity (protein, UniProt Q9LR78 1-793, looked up, variant D510N)
Serine/threonine-protein …: MAPDQSYQYPSPSYESIQTFYDTDEDWPGPRCGHTLTAVFVNNSHQLILFGGSTTAVANHNSSLPEISLDGVTNSVHSFDVLTRKWTRLNPIGDVPSPRACHAAALYGTLILIQGGIGPSGPSDGDVYMLDMTNNKWIKFLVGGETPSPRYGHVMDIAAQRWLVIFSGNNGNEILDDTWALDTRGPFSWDRLNPSGNQPSGRMYASGSSREDGIFLLCGGIDHSGVTLGDTYGLKMDSDNVWTPVPAVAPSPRYQHTAVFGGSKLHVIGGILNRARLIDGEAVVAVLDTETGEWVDTNQPETSASGANRQNQYQLMRRCHHAAASFGSHLYVHGGIREDVLLDDLLVAETSQSSSPEPEEDNPDNYMLLDDYLMDEPKPLSSEPEASSFIMRSTSEIAMDRLAEAHNLPTIENAFYDSAIEGYVPLQHGAETVGNRGGLVRTASLDQSTQDLHKKVISTLLRPKTWTPPANRDFFLSYLEVKHLCDEVEKIFMNEPTLLQLKVPIKVFGNIHGQYGDLMRLFHEYGHPSVEGDITHIDYLFLGDYVDRGQHSLEIIMLLFALKIEYPKNIHLIRGNHESLAMNRIYGFLTECEERMGESYGFEAWLKINQVFDYLPLAALLEKKVLCVHGGIGRAVTIEEIENIERPAFPDTGSMVLKDILWSDPTMNDTVLGIVDNARGEGVVSFGPDIVKAFLERNGLEMILRAHECVIDGFERFADGRLITVFSATNYCGTAQNAGAILVIGRDMVIYPKLIHPHPPPISSSEEDYTDKAWMQELNIEMPPTPARGESSE
Turning to B2, the “phosphatase activity of the wild type protein” value in data set [1] (phospho-myelin basic proteins as a substrate) is reported as “about 15%”.

B3: PP2: PP1 inhibitor, protein phosphatase inhibitor 2 (protein, UniProt P41236 2-205, looked up)
Protein phosphatase inhibitor …: AASTASHRPIKGILKNKTSTTSSMVASAEQPRGNVDEELSKKSQKWDEMNILATYHPADKDYGLMKIDEPSTPYHSMMGDDEDACSDTEATEAMAPDILARKLAAAEGLEPKYRIQEQESSGEEDSDLSPEEREKKRQFEMKRKLHYNEGLNIKLARQLISKDLHDDDEDEEMLETADGESMNTEESNQGSTPSDQQQNKLRSS
Consider B3, for which the “enzymatic activity of PP1 on BIN2” value in data set [4] is reported as “inhibited the enzymatic activity of the PP1 phosphatase on BIN2”.

B4: Kelch repeat domain: N-terminal Kelch (1-363th amino acid) region of BSU1 (protein)
chain: MAPDQSYQYPSPSYESIQTFYDTDEDWPGPRCGHTLTAVFVNNSHQLILFGGSTTAVANHNSSLPEISLDGVTNSVHSFDVLTRKWTRLNPIGDVPSPRACHAAALYGTLILIQGGIGPSGPSDGDVYMLDMTNNKWIKFLVGGETPSPRYGHVMDIAAQRWLVIFSGNNGNEILDDTWALDTRGPFSWDRLNPSGNQPSGRMYASGSSREDGIFLLCGGIDHSGVTLGDTYGLKMDSDNVWTPVPAVAPSPRYQHTAVFGGSKLHVIGGILNRARLIDGEAVVAVLDTETGEWVDTNQPETSASGANRQNQYQLMRRCHHAAASFGSHLYVHGGIREDVLLDDLLVAETSQSSSPEPEEDNP
modifications: left off: a dimerising Fc or GST
notes: N-terminal Kelch (1-363th amino acid) region of BSU1
Turning to B4, in data set [3] (pre-incubated with BIN2 before adding BZR1), the “BIN2 phosphorylation of BZR1, pre-incubation” value was “showed no effect”.
